Values joined by “and” are separate entries in the source; they are usually repeats but may differ in a detail not shown here. Identical values can stand only once.
Assays:
[1] = target: T1, human PD-1, full-length, expressed on cells (human (Homo sapiens), UniProt Q15116 25-288); assay: cell-based or functional assay
[2] = target: T1, human PD-1, full-length, expressed on …; assay: cell-based or functional assay; remark: listed apart in the source

T1 sequence (Q15116 25-288): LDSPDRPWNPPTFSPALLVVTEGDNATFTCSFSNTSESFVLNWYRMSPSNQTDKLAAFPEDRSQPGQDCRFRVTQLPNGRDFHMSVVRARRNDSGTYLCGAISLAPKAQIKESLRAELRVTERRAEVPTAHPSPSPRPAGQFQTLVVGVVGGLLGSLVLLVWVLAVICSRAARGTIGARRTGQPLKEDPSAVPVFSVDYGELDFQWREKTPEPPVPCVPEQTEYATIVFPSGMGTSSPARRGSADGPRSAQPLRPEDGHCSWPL

EC50 of PD-1/PD-L1 checkpoint blockade, bioluminescent cell-based reporter assay [1]: 0.165 µg/mL and 1.12 nM
EC50 in the antigen-specific proliferation assay (CD8+ T-cell expansion index) [2]: 0.0124 µg/mL and 0.0837 nM
B1: IgG1-PD1 (antibody)
heavy: QVQLVESGGGLVQPGTSLRLSCSVSGFSLYSYNMGWVRQAPGKGLEYIGIISGGTIGHYASWAKGRFTISRDTSKTTLYLQMNSLTTEDTATYFCARAFYDDYDYNVWGPGTLVTVSSASTKGPSVFPLAPSSKSTSGGTAALGCLVKDYFPEPVTVSWNSGALTSGVHTFPAVLQSSGLYSLSSVVTVPSSSLGTQTYICNVNHKPSNTKVDKRVEPKSCDKTHTCPPCPAPEFERGPSVFLFPPKPKDTLMISRTPEVTCVVVDVSHEDPEVKFNWYVDGVEVHNAKTKPREEQYNSTYRVVSVLTVLHQDWLNGKEYKCKVSNKALPAPIEKTISKAKGQPREPQVYTLPPSREEMTKNQVSLTCLVKGFYPSDIAVEWESNGQPENNYKTTPPVLDSDGSFFLYSKLTVDKSRWQQGNVFSCSVMHEALHNHYTQKSLSLSPG
light: AIQLTQSPSSLSASVGGTVTITCQSSQSVYGNNQLSWYQQKPGQPPKLLIYQASKLETGVPSRFRGSGSGTQFTLTISSLQSEDFATYYCAGGYSSSSDTTFGGGTEVVVKRTVAAPSVFIFPPSDEQLKSGTASVVCLLNNFYPREAKVQWKVDNALQSGNSQESVTEQDSKDSTYSLSSTLTLSKADYEKHKVYACEVTHQGLSSPVTKSFNRGEC
